Results published in PMC4914101 (Nucleic Acids Research, 2016).
Where two headings read alike, the source gives them in different places.

T1: SART3 HAT repeat domain (residues 94–611) (human, UniProt Q15020 94-611)
T1 sequence (looked up): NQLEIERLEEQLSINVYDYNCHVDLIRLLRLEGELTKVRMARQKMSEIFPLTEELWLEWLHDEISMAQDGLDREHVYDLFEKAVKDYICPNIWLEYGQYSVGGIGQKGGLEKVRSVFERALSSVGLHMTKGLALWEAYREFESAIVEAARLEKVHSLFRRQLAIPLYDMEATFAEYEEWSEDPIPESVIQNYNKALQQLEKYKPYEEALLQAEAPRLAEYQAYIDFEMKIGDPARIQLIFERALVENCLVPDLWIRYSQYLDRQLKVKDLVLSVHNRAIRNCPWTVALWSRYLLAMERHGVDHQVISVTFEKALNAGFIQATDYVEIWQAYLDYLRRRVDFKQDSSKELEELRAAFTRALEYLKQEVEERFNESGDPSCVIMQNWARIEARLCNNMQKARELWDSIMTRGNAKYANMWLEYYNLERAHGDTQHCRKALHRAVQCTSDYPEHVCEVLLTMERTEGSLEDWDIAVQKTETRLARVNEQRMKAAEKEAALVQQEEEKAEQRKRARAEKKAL

B1: SART3 HAT-C with Lα (residues 278–611) (domain or fragment, human, UniProt Q15020 278-611, looked up)
chain: PESVIQNYNKALQQLEKYKPYEEALLQAEAPRLAEYQAYIDFEMKIGDPARIQLIFERALVENCLVPDLWIRYSQYLDRQLKVKDLVLSVHNRAIRNCPWTVALWSRYLLAMERHGVDHQVISVTFEKALNAGFIQATDYVEIWQAYLDYLRRRVDFKQDSSKELEELRAAFTRALEYLKQEVEERFNESGDPSCVIMQNWARIEARLCNNMQKARELWDSIMTRGNAKYANMWLEYYNLERAHGDTQHCRKALHRAVQCTSDYPEHVCEVLLTMERTEGSLEDWDIAVQKTETRLARVNEQRMKAAEKEAALVQQEEEKAEQRKRARAEKKAL

Key:
[1] = target: T1, SART3 HAT repeat domain (residues …); experiment: ITC
[2] = target: B1; experiment: ITC
[3] = target: T1, SART3 HAT repeat domain (residues …); experiment: ITC; remark: listed apart in the source
crystal structure = target: the molecule itself; experiment: crystal structure
[4] = target: mouse importin-α2 (residues 70–498) (mouse, UniProt P52293 70-498); experiment: ITC

Row | Binder | Kd [1] [nM] | dH [1] [kcal/mol] | stoichiometry N [1] | Kd [2] [nM] | dH [2] [kcal/mol] | stoichiometry N [2] | Kd [3] [nM] | dH [3] [kcal/mol] | stoichiometry N [3] | other results
1 | DUSP-UBL domains of human USP15 (residues 1–226) (domain or fragment, UniProt Q9Y4E8 1-226, looked up) MAEGGAADLDTQRSDIATLLKTSLRKGDTWYLVDSRWFKQWKKYVGFDSWDKYQMGDQNVYPGPIDNSGLLKDGDAQSLKEHLIDELDYILLPTEGWNKLVSWYTLMEGQEPIARKVVEQGMFVKHCKVEVYLTELKLCENGNMNNVVTRRFSKADTIDTIEKEIRKIFSIPDEKETRLWNKYMSNTFEPLNKPDSTIQDAGLYQGQVLVIEQKNEDGTWPRGPST | 190 ± 40 | -16.1 ± 0.1 | 0.99 ± 0.01 | 140 ± 60 | -17.7 ± 0.5 | 1.09 ± 0.01 |  |  |  | 
2 | USP11^L4 (USP11 DUSP-UBL with the linker replaced by the USP4 linker) (domain or fragment, human, UniProt P51784 73-288, looked up) EELPGLDSQWRQIENGESGRERPLRAGESWFLVEKHWYKQWEAYVQGGDQDSSTFPGCINNATLFQDEINWRLKEGLVEGEDYVLLPAAAWHYLVSWYGLEHGQPPIERKVIEHGLFVKHCKVEVYPVELLLVRHNDLGKSHTVQFSHTDSIGLVLRTARERFLVEPQEDTRLWAKNSEGSLDRLYDTHITVLDAALETGQLIIMETRKKDGTWPSAQL |  |  |  |  |  |  | 20100 ± 4360 | -9.1 ± 0.4 | 0.89 ± 0.15 | 
3 | USP11^L15 (USP11 DUSP-UBL with the linker replaced by the USP15 linker) (domain or fragment, human, UniProt P51784 73-288, looked up) EELPGLDSQWRQIENGESGRERPLRAGESWFLVEKHWYKQWEAYVQGGDQDSSTFPGCINNATLFQDEINWRLKEGLVEGEDYVLLPAAAWHYLVSWYGLEHGQPPIERKVIEQGMFVKHCKVEVYPVELLLVRHNDLGKSHTVQFSHTDSIGLVLRTARERFLVEPQEDTRLWAKNSEGSLDRLYDTHITVLDAALETGQLIIMETRKKDGTWPSAQL |  |  |  |  |  |  | 18700 ± 2250 | -5.7 ± 0.7 | 1.06 ± 0.09 | 
4 | B1 |  |  |  |  |  |  |  |  |  | binding result (crystal structure): binds
5 | DUSP-UBL domains of human USP4 (residues 1–230) (domain or fragment, UniProt Q13107 1-230, looked up) MAEGGGCRERPDAETQKSELGPLMRTTLQRGAQWYLIDSRWFKQWKKYVGFDSWDMYNVGEHNLFPGPIDNSGLFSDPESQTLKEHLIDELDYVLVPTEAWNKLLNWYGCVEGQQPIVRKVVEHGLFVKHCKVEVYLLELKLCENSDPTNVLSCHFSKADTIATIEKEMRKLFNIPAERETRLWNKYMSNTYEQLSKLDNTVQDAGLYQGQVLVIEPQNEDGTWPRQTLQ | 880 ± 130 | -21.6 ± 0.6 | 1.07 ± 0.02 | 580 ± 30 | -21.1 ± 0.4 | 1.05 ± 0.01 |  |  |  | 
6 | RKRARAEKKALKKKKKIRGPEKRGADEDDEKEWGDDEEEQPSKRRRVEN (domain or fragment) [SART3 NLS (residues 601–649)] |  |  |  |  |  |  |  |  |  | Kd [4]: 210 ± 10 nM; dH [4]: -8.6 ± 0.2 kcal/mol; stoichiometry N [4]: 1.01 ± 0.01
